# Experimental data published in the DeepSol protein solubility set.
# Experiment: soluble on expression in E. coli; label from the status in PepcDB or PDB records
row,Sequence,soluble on expression in E. coli
1,MKIQMKTPLVELDGDEMTRVLWPLIKDKLLLPFIDLQTEYYDLGIEERDRTNDQITIDAAEAIKKYGVGVKNATITPNQDRVEEYGLKEQWKSPNATVRAMLDGTVFRKPIMVKNIKPSVRSWQKPIVVGRHAYGDFYKNAEIFAEAGGKLEIVVTDKNGKETRQTIMEVDEPAIVQGIHNTVASIGHFARACFEYSLDQKIDCWFATKDTISKQYDQRFKIIFEEIFAQEYKEKFAAAGIEYFYTLIDDVVARMMKTEGGMLWACKNYDGDVMSDMVASAFGSLAMMSSVLVSPYGYFEYEAAHGTVQRHYYQHLKGERTSTNPVALIYAWTGALRKRGELDGTPDLCAFCDSLEAITIECIESGYMTGDLARICEPAAIKVLDSIEFIDELGKRLQQLNK,soluble
2,YDQSSVLIVGDVMLDRYWGGPTSRISPEAPVPVVKVEKIEERPGGAANVAMNIAALGGDAHLVGLVGEDEPAQALTTTLESLKVHCDFVALPEFPTITKLRVMSRGQQLIRLDFEDSFHDVAAEPIISRMQQALSSVKAVVLSDYAKGALEHVQLMIQEARKVNVPVFIDPKGADFERYRGATLLTPNMLEFETVVGKVKDEDDLVAKGQQIIEEFDFEALLVTRSEHGMTLLRRNMEPLHLPTQAREVFDVTGAGDTVISVLAASVSTGKPLDEACALANAAAGVVVGKLGTSTLSTIELAEAIHG,not soluble
3,MSLNAEIGIDSITLSIARVTPSTHWTFVEIVDEENRIGLGEATLTGRDSELLRAASDMFPAIVDMRVDDAASWLDTLELGTIARAAVASALSHAVTDLRARIRNRSIAELLGHPVRAFIPMYANINRRTHTRSPDSFAHSARSAVAAGFSAVKIAPFDGVTLYGSDAHAQPSLIDAALERIAAVRDAVGPAVDVMVDCHWRLNAHVARQVLASDVCDGLHWLECPLPETPDRLHELRALRSLANDRGIRLAGCEEAIRAEGFMPFVEAGAYDVMMPDVKYVGSVDEMLHVAQLLGRHDVEFSPHNPSGPVAHAVSMQICSLVPNFRRMEMQFDETPYFHTLTGATVPVPDNGGAQIARTSGIGMRLDRDALDPLTIRRLQFHRACRAGELVVTEGHHHHHH,soluble
4,MIALFNKLLDWFKALFWKEEMELTLVGLQYSGKTTFVNVIASGQFNEDMIPTVGFNMRKITKGNVTIKLWDIGGQPRFRSMWERYCRGVSAIVYMVDAADQEKIEASKNELHNLLDKPQLQGIPVLVLGNKRDLPGALDEKELIEKMNLSAIQDREICCYSISCKEKDNIDITLQWLIQHSKSRRS,soluble
5,MRLPILLLSILGLSLGFGHDSPSSPAANQYATELADRFFTKFIKAVKYSDVRVMDSLLLSSNENLSSKNMIREFYKYPNTKIHDARFVGRNIATTVFFPLSPHGYDIPFKSADFILKKRFMGDWAITSMENLKYNSGKG,not soluble
6,MNYTEHYHDWLRDAHAMEKQAESMLESMASRIENYPDIKARIEQHISETKHQITMLEEVLDRNGISRSVLKDSMSKMAAMGQSIGGMFPSDEIVKGSISGYVFEQFEIACYTSLLAAAKKAGDTASIPTIEAILKEEMQMADWLIKHIPQTTEQFLLRSEADGVEAKK,not soluble
7,MGSDKIHHHHHHMRIVLGVSSGIAIYKAVDLASKLRKEGHELHVVMTPDATRMISPVVFSAVGNCSVYHDWMDVRNGWIPHTEISRTADVLVVAPATANTISKIANGIADNLLTLVALAFDKDAKILVPTMNYRMYSNKLFQENLEKLKNNGWFVVEPEEGHLACGEVGKGRYPENEKIVEAVHLLTFPKKLAGKKVLITAGPTRERIDAVRFITNASSGKMGYALATVAKRMGARVSLVSGPTSLKPPYYVDEFVKVESAEEMYEEVMKRFEDTDIVIMNAAVGDYRPKKVFEGKLKKTENDLVLHLERTKDILKELGQRKSNQILVGFAAEVENFEENAVKKLREKNLDLLVLNDARKAFSSDRVEVYIYGRDGFIKRIDEDDKIRVACGILDVVSNLAGGSPS,not soluble
8,TQYWDFCFREPDVAATDQEYREELDRLFVQAVKRQLVTDVELGSYLSGGMDSGSIAAVAAAEHPYIKTFTCGFDLNSASGIELGFDERSKAEYMSYCFKTEHYEMVLKAGDMERILPHVACHLEEPRVGQSYPNFFAAKLASRFVKVVLSGAGGDELFAGYPWRYYRAVVNDDFEHYVDKYYNFWQRLLPNSELKRVFAPIAGEVEHVWTRDIFRNVFRHHADQLYRPEDYINHSLYFEAKTFLHGLLVVEDKLSMAHGLETRVPFLDNDLVEFAMRCPIRLKLNNLAEVVKINENETGNKVRKFFEKNRDGKTILREVMNHRLPADISKAEKQGFSAPDASWFKGESLEFVRRKLLDGHSPLYEIMDAATVRELVNEHLGGIRNRRLLIWSLLSVDAWMRQT,not soluble
9,MTVQQSGRRERKKAATRQKIADTALRLFLERGYDAVGIRDVAAEADVAVTTLFSHFASKEALVFEQDEDFEHRLTRAVTDRAPHEPLIPALRREILALVRHCTADSAAPIWRMIDASPALRKYDESVRLRHAEALATAIAADPTRTRSETAARTLARFVIDAYSLSREAPDPEAALDEIFPMIEAAWAAARPPHPT,not soluble
10,MAHHHHHHMPPLAQLCALALQYRCDLSQEIDQNIRSCFHSSRVPSISLWDYIRRFAKYSVCSEECFILAMVLMDRYVCKTQIPITLRNVHRLYITAMTLSVKLRDDSYYSNAYYASIGGVVNAELNVLELELLDIVQWFTWVEKSVYDAYVARLEALFGDAMPKLLVASPNK,not soluble
11,SQVDVKDCANHEIKKVLVPGCHGSEPCIIHRGKPFQLEAVFEANQNTKTAKIEIKASIDGLEVDVPGIDPNACHYMKCPLVKGQQYDIKYTWNVPKIAPKSENVVVTVKVMGDDGVLACAIATHAKIRD,soluble
12,MNFPWRDGNRVELLINGEEYFPRLFQCIAEARREILLETFIIFEDEVGRQLQEALSAAAERGVEVQVTVDGYGTASLSPDYLARLTASGVRVHLFDPRPRLLGMRTNLFRRLHRKLVVIDRRQAFVGGINYGEDHLVRRGNMAKQDYAVRVEGPVVRDIRQACLALLEPDADYPPLRPSGAGQPARVRLVIRDNDQSSDDIEREYLQAIRQARRRLLIANAYFFPGYRLLRELRDAARRGVRVDLVLQGMPDMPLVRLCSRLLYDYLLREGVRIHEYCQRPLHGKVAVIDDDWSTIGSSNLDPLSLSLNLEANLVIRDVAFNGQLYQHLRELARRHCRRISRRHARRGYWWRAPLIFLGFHFSRHFPAIAGWVPAHLPRLKSLEPRPSRRWQERQGQRGNP,not soluble
13,MGSDKIHHHHHHMPVIKFSYGDSMSTPLDSDLLRTFLAVADTGNLTRAADTVRRTQSAVSMQIRKLEELIGSALFERHSRGVILTDDGRRLADNARRIVSLLDDTAAAMRSPALEGSVRIGISEEYVNSTLPKALGAFAAIHPGVEVTVRQETSMANSAALAAGELDIAVVFEPGGRSRNEVLMVNPTVWATCDQHGAHERRPVPIATYTYAEGGWCDELARRSLQSRGIESRIAYVSRTSGGLIAALISGLAIAPLSRTAIPAGCRELTEEDGFGIIDMTNVVLRTRRGNRSPTVDAMADAIRRAFRAPAEKEKEEVRSTTTDG,not soluble
14,MGSDKIHHHHHHMLQTINLTQRYATKKLFENVNIKLDKNKRYGLIGANGAGKSTFLKILSKSIDCSSGEVIITSGMKMGVLGQDQYAFEDLSLKDAVLIGNKRLYDAIKEKERLYTEGDLSDDKVNARLGELETICVEEDPMYECEVAIEKILEDLGIPSSKHNDLMKTLPSSDKFKILLAQVLFPKPDILLLDEPTNNLDLNAIEWLENNLKRHEGTMVVISHDRHFLNAVCTHILDLDFHSVREFSGNYDDWYIASTLIAKQQEAERNKKLKEKEELEKFIARFSANASKAKQATSRQKQLDKLDIQSLAVSSRRDPSIIFKPKRTIGNEALECENISKSYDDQIVLNQVSLKVMPKDKIALIGPNGVGKSTLCKILVEELKPDKGVVKWGATVSKGYFPQNVSEEISGEETLYQWLFNFNKKIESAEVRNALGRMLFNGEEQEKCVNALSGGEKHRMVLSKLMLEGGNFLVLDEPTNHLDLEAIIALGEALFKFDGALICVSHDRELIDAYANRIIELVPSPKGASIIDFKGSYEEYLASKK,not soluble
15,MSPIPTTAETRKINEAAELMVNFWMSFACVEKEKEQMASIFEKMNGLFAAPSTTSTASLFGKYEGLFETTEVATEDFNTLWWNYPAQPSFPQLPVFVRSPIDSIKIYGAIQHDFGMSEDESVQYPSPISPSSDSSSETITHVSPGYLLQEVFLQRAVIEEQKKIIDGFHEIQKLNKKLAALHNNFTY,not soluble
16,QKKVNVTGAVGMVSAEALEARPVANASQALQGVVPGLNLTVGNNGGALDGTLNMNIRGAGTIGDGSGSSPLVLIDGIEGDLNTVNPNDIESVSVLKDAASASIYGARASFGVILVTTKSGKSG,not soluble
17,HHHHHHPEIVDTCSLASPASVCRTKHLHLRCSVDFTRRTLTGTAALTVQSQEDNLRSLVLDTKDLTIEKVVINGQEVKYALGERQSYKGSPMEISLPIALSKNQEIVIEISFETSPKSSALQWLTPEQTSGKEHPYLFSQCQAIHCRAILPCQDTPSVKLTYTAEVSVPKELVALMSAIRDGETPDPEDPSRKIYKFIQKVPIPCYLIALVVGALESRQIGPRTLVWSEKEQVEKSAYEFSETESMLKIAEDLGGPYVWGQYDLLVLPPSFPYGGMENPCLTFVTPTLLAGDKSLSNVIAHEISHSWTGNLVTNKTWDHFWLNEGHTVYLERHICGRLFGEKFRHFNALGGWGELQNSVKTFGETHPFTKLVVDLTDIDPDVAYSSVPYEKGFALLFYLEQLLGGPEIFLGFLKAYVEKFSYKSITTDDWKDFLYSYFKDKVDVLNQVDWNAWLYSPGLPPIKPNYDMTLTNACIALSQRWITAKEDDLNSFNATDLKDLSSHQLNEFLAQTLQRAPLPLGHIKRMQEVYNFNAINNSEIRFRWLRLCIQSKWEDAIPLALKMATEQGRMKFTRPLFKDLAAFDKSHDQAVRTYQEHKASMHPVTAMLVGKDLKVD,soluble
18,MGSDKIHHHHHHMILCAGEALIDMLPRKTEAGEAAFAPYPGGSVFNTAVALSRLGTKTEFFSGLSTDLFGERLDSVLMANGVGSALAHRNDRPTTLAFVTLTDGHASYAFYDENTAGRMLTEADLPAIPETAKACFFGGISLAVEPCADAYAALIGRANDLGRVVMIDPNIRPGFIADEARFRARLDQMLAQTDIIKASDEDLRWLLGDMSLPELAEALRAKGPSVVLVTQGAAGVTGFYAGGEIHVDAEAVTVVDTVGAGDTFNAGVLAGLDDAGALDKAMIAKGLDAETLRGAMELGVRASAVTVTRAGANPPRRDELS,not soluble
19,GSHMTNDIYFMTLAIEEAKKAAQLGEVPIGAIITKDDEVIARAHNLRETLQQPTAHAEHIAIERAAKVLGSWRLEGCTLYVTLEPCVMCAGTIVMSRIPRVVYGADDPKGGCSGSLMNLLQQSNFNHRAIVDKGVLKEACSTLLTTFFKNLRANKKSTN,soluble
20,MGSDKIHHHHHHMSNTPIELKGSSFTLSVVHLHEAEPKVIHQALEDKIAQAPAFLKHAPVVLNVSALEDPVNWSAMHKAVSATGLRVIGVSGCKDAQLKAEIEKMGLPILTEGKEKAPRPAPTPQAPAQNTTPVTKTRLIDTPVRSGQRIYAPQCDLIVTSHVSAGAELIADGNIHVYGMMRGRALAGASGDRETQIFCTNLMAELVSIAGEYWLSDQIPAEFYGKAARLQLVENALTVQPLN,not soluble
